Experimental findings from paper PMC3144408 (The Journal of Cell Biology, 2011) are described below.

Numbering of substitutions follows the chain as printed. Ends that are not written are not given here.

The test system of one experiment is MDA-MB-231 cells. Description: Colocalization of internalized β1-integrin with endogenous p120RasGAP. The following applies: integrin trafficking 45 min in the presence of primaquine; Pearson's correlation coefficient, n = 27 cells. The format is cell-based, human.
Experiment [1] addresses T1, Rab21 (residues 15–225), recombinant, as used in the affinity and competition measurements (human, UniProt Q9UL25 15-225).
T1 sequence (looked up): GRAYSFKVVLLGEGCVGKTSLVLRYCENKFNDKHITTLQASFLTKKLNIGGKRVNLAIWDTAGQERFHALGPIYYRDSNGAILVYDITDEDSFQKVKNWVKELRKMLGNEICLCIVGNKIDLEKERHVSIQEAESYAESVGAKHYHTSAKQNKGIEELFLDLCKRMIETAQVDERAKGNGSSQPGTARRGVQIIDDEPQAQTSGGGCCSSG
Description: fluorescence polarisation.

In experiment [2] the target is T2, p120RasGAP GAP domain R789A, recombinant, as used in fluorescence polarisation (human, UniProt P20936 714-1047, R789A).
T2 sequence (looked up): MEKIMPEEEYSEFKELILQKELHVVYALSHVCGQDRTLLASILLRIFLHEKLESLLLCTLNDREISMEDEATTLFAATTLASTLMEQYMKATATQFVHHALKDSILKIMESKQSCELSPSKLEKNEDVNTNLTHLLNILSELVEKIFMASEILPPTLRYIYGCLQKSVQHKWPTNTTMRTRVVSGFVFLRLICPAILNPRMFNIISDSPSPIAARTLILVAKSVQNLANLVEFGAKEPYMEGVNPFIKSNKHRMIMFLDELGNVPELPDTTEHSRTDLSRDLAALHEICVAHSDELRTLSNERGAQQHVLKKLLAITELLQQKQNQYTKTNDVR
Description: fluorescence polarisation.

For experiment [3], the target named is T3, GST-p120RasGAP GAP domain (p120 GAP WT, residues 714–1047) (human, UniProt P20936 714-1047).
T3 sequence (looked up): T2 sequence (looked up) with A76R
Description: pull-down.

As for `COc1cc(NC(C)CCCN)c2ncccc2c1` (stereo not shown) [primaquine], the “overlap (colocalization) of internalized β1-integrins with p120RasGAP” value with MDA-MB-231 cells is “significantly increased the overlap of integrins with p120RasGAP”.
The Kd is the constant that tells how readily two partners part at equilibrium. As to WKLGFFKRKYEKM (also: EDANS fluorophore coupled, end not given here) [EDANS-conjugated α2-integrin cytoplasmic domain peptide (α2-cons, wild type)], in experiment [1], the Kd was determined as 28 µM. Moreover, in experiment [2], the binding result was “binds”.
With WKIGFFKRPLKKKMEKRPLKKKMEK (also: biotinylated, end not given here) [biotinylated α1-integrin cytoplasmic domain peptide], the binding result in experiment [3] was “binds”.
